Reference: patent US6664090B1, “Carboxylesterase nucleic acid molecules, proteins and uses thereof” (Heska Corporation, priority 1996, dated 2003)

Tests used:
[1] = juvenile hormone esterase (JHE) activity assay, hydrolysis of 3H-juvenile hormone to juvenile hormone acid; type: biochemical; conditions: purified recombinant protein from S. frugiperda:pVL-nfE91600 supernatant, size exclusion fractions
Experimental: Unlabeled juvenile hormone (JH; available from ICN Biomedicals, Inc., Aurora, Ohio) was diluted in hexane to concentration of about 0.025 M. Labeled 10-^3H-juvenile hormone (^3H-JH; available from Dupont-NEN) was diluted in hexane to concentration of about 80,000 cpm/μl. A JH substrate mixture was prepared by mixing about 20 μl of unlabeled JH with about 80 μl of ^3H-JH (about 5 μCi) in a 4 ml screw cap vial. The substrate mixture was then covered with nitrogen (i.e., “blanketed”) and the solvent contained in the mixture was evaporated by heating the mixture at 35° C. When just dry, about 1 ml of absolute anhydrous ethanol (final concentration 5×10^−4 M, or 6400 cpm/μl) was added to the vial. The substrate mixture was then stored at −20° C.
About 5 equivalents of each tissue (about 5 μl of protein) was added into the bottom of a small glass autosampler vial. About 95 μl of Tris-buffered saline (TBS) was added to each vial to bring the final volume in each vial to about 100 μl. Two control samples were also prepared by adding 100 μl TBS to two separate vials. […]
To measure labeled juvenile hormone acid, about 250 μl isooctane was added to each vial. […] The amount of ^3H-juvenile hormone acid contained in each vial was determined using a Beckman LS-1801 liquid scintillation counter (available from Beckman, Fullerton, Calif.).

[2] = general carboxylesterase (CE) activity assay, hydrolysis of α-napthyl acetate, Fast Blue, 590 nm; type: biochemical; conditions: purified recombinant protein from S. frugiperda:pVL-nfE91600 supernatant, size exclusion fractions
Experimental: Tissue samples and soluble extracts were prepared as described above in Example 1, except not labelled, from unfed (UF) and bovine blood-fed 1st instar flea larvae, bovine blood-fed 3rd instar flea larvae, bovine blood-fed prepupal flea larvae, unfed whole adult fleas, cat blood-fed adult (ACF) whole fleas, cat blood-fed adult fleas that have had their heads and midguts removed (referred to herein as fed adult partial fleas), unfed adult flea midguts and cat blood-fed adult flea midguts. About 5 tissue equivalents of each tissue were assayed for general CE activity using the following method. Tissue samples of about 5 μl were added to separate wells of flat-bottomed microtiter plate (available from Becton Dickinson, Lincoln Park, N.J.). A control well was prepared by adding about 5 μl of Tris buffer to an empty well of the plate. About 95 μl of 25 mM Tris-HCl (pH 8.0) was then added to each sample to increase the volume in each well to about 100 μl. About 100 μl of 0.25 mM α-napthyl acetate (available from Sigma, St. Louis, Mo.) dissolved in 25 mM Tris-HCl (pH 8.0) was then added to each well. […]
The microtiter plate was then analyzed using a Cambridge Technology, Inc. (Watertown, Pa.) model 7500 Microplate Reader set to 590 nm. The absorbance value for the control sample was subtracted from absorbance values of experimental samples, such that the background value was zero.

B1: PfE9528: full-length flea esterase protein of about 528 amino acids, SEQ ID NO:37, encoded by nfE92007 (protein, listed as Ctenocephalides felis)
chain: MADLQVTLLQGTLKGKEQISEKGNVFHSYSGIPYAKPPVGDLRFKPPQPAEPWSGVLDASKEGNSCRSVHFIKKIKVGAEDCLYLNVYVPKTSEKSLLPVMVWIHGGGFFMGSGNSDMYGPEYLMDYGIVLVTFNYRLGVLGFLNLGIEEAPGNVGLMDQVEALKWVKNNIASFGGDPNNVTIFGESAGGASVHYLMLSDLSKGLFHKAISQSGSAFNPWALQHDNNKENAFRLCKLLGHPVDNETEALKILRQAPIDDLIDNRIKPKDKGQLIIDYPFLPTIEKRYQNFEPFLDQSPLSKMQSGNFTKVPFICGYNSAEGILGLMDFKDDPNIFEKFEADFERFVPVDLNLTLRSKESKKLAEEMRKFYYQDEPVSSDNKEKFVSVISDTWFLRGIKNTARYIIEHSSEPLYLYVYSFDDFGFLKKLVLDPNIEGAAHGDELGYLFKMSFTEFPKDLPSAVVNRERLLQLWTNFAKTGNPTPEINDVITTKWDKATEEKSDHMDIDNTLRMIPDPDAKRLRFWNKFL
[1]
  juvenile hormone esterase activity: juvenile hormone esterase activity
[2]
  carboxylesterase activity: carboxylesterase activity
